Target: T1, hKLRG1 (human KLRG1), plate-coated, Example 21 (human, UniProt Q96E93 60-195, limits assumed)
T1 construct: also called plate-coated KLRG1
T1 sequence (looked up): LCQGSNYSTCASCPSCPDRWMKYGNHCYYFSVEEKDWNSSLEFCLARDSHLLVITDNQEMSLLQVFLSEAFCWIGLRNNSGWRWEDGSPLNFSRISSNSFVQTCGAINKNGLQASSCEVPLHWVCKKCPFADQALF
Experiment: ELISA, soluble hE-cadherin on plate-coated hKLRG1
Source text: An ELISA based KLRG1/E-cadherin competition assay was developed to measure KLRG1/E-cadherin binding as well as neutralization of KLRG1/E-cadherin binding.
FIG. 23 presents the results of soluble hE-cadherin binding to plate-coated hKLRG1.

EC50: 25 nM
B1: soluble recombinant human E-cadherin (ligand)
chain: DWVIPPISCPENEKGPFPKNLVQIKSNKDKEGKVFYSITGQGADTPPVGVFIIERETGWLKVTEPLDRERIATYTLFSHAVSSNGNAVEDPMEILITVTDQNDNKPEFTQEVFKGSVMEGALPGTSVMEVTATDADDDVNTYNAAIAYTILSQDPELPDKNMFTINRNTGVISVVTTGLDRESFPTYTLVVQAADLQGEGLSTTATAVITVTDTNDNPPIFNPTTYKGQVPENEANVVITTLKVTDADAPNTPAWEAVYTILNDDGGQFVVTTNPVNNDGILKTAKGLDFEAKQQYILHVAVTNVVPFEVSLTTSTATVTVDVLDVNEAPIFVPPEKRVEVSEDFGVGQEITSYTAQEPDTFMEQKITYRIWRDTANWLEINPDTGAISTRAELDREDFEHVKNSTYTALIIATDNGSPVATGTGTLLLILSDVNDNAPIPEPRTIFFCERNPKPQVINIIDADLPPNTSPFTAELTHGASANWTIQYNDPTQESIILKPKMALEVGDYKINLKLMDNQNKDQVTTLEVSVCDCEGAAGVCRKAQPVEAGLQIPA
notes: also called hE-cadherin; soluble E-cadherin

From US20190085083A1 (BRIGHAM AND WOMEN S HOSPITAL, published 2019)
